Source: article PMC11102864 (Nature Structural & Molecular Biology, 2024)

Molecular target: Arp3 (subunit of the human Arp2/3 complex, activated conformation at the branch) (human, UniProt P61158 1-418)
Assay: cryo-EM structure; actin branches reconstituted from Arp2/3, VVCA, SPIN90, actin and capping protein, then 1.9 uM full-length cortactin and 10 uM phalloidin; 20 mM HEPES pH 7.5, 50 mM KCl, 1 mM EGTA, 1 mM MgCl2, 0.2 mM ATP, 1 mM DTT; room temperature; overall resolution about 3.3 Å
Conditions: both partners purified

- binding result: binds
B1: Full-length mouse cortactin (natural protein)
chain: not shown
notes: cortactin, mouse, residues 1-546, UniProt Q60598; only residues 21-79 (NtA) and 80-116 (first central repeat) were built in the model; also called full-length cortactin
